The source of these data is patent US20200002405A1.

Where two headings read alike, the source gives them in different places. Some results are limits rather than exact numbers.

Common to all, as to assay: cell-based or functional assay
The target of test [1] is LASV Josiah (lineage IV) glycoprotein, full-length GP (Lassa virus, Josiah strain) (UniProt P08669).
In test [2] the target is LASV Pinneo (lineage I) glycoprotein (Lassa virus, strain Pinneo).
Test [3] has as its target LASV 237 (lineage III) glycoprotein (Lassa virus, strain 237).
For test [4], the target named is LASV A19 (lineage II) glycoprotein (Lassa virus, strain A19).
Test [5] deals with LASV Josiah (lineage IV) glycoprotein, full-length GP (Lassa virus, Josiah strain) (UniProt P08669). This is another data set of the same source.

LASV Josiah (lineage IV) glycoprotein, full-length GP (Lassa virus, Josiah strain), sequence (P08669 2-491): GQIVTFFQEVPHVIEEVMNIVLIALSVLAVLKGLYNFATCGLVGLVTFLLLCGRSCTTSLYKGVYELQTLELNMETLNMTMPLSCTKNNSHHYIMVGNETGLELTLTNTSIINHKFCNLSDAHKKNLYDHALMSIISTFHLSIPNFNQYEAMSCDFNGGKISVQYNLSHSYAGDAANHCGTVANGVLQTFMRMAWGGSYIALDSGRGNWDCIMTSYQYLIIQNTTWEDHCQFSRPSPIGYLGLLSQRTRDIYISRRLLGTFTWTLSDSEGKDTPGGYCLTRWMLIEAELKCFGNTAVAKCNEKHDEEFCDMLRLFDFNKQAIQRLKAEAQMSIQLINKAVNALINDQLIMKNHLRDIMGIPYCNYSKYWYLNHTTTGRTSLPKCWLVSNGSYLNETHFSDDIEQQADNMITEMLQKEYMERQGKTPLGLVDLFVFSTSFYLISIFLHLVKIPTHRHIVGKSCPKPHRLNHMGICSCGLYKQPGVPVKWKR

B1: 19.7E (antibody, V domains shown)
VH: EVQLVESGGGLVRPGGSLRLSCAASGFSFSSYSMHWVRHVPGKGLVWVSYINSDGSTKIYADSVKGRFSISRDNAKNKLYLQMDSLRVEDTAVYSCVRLVHYDWSPFVWGQGTLVTVSS
VL: EIVLTQSPSTLSASVGDRVTITCRASQSINNWLAWYQEKPGKAPKLLINKASSLESGVPSRFSGSGSGTEFTLTITSLQPDDFATYYCQQYNSNSWTFGQGTKVDMKR
Turning to B1, the IC50 (neutralization) in test [1] was 1.19 µg/mL; in test [2], 1.56 µg/mL; in test [3] it was 1.06 µg/mL; in test [4], over 20 µg/mL; in test [5], 5.91 µg/mL. The IC80 (neutralization) in test [1] was over 10 µg/mL; in test [2], 3.27 µg/mL; in test [3], 15 µg/mL; in test [4], over 20 µg/mL; in test [5], over 20 µg/mL.

B2: 25.10C (antibody, V domains shown)
VH: QVQLQESGGGLVKPGGSLRLSCTASGFNFNKYNMNWVRQAPGKGLEWVSSISALSTYIYYADSLKGRFTVSRDNAKNSLFLQMNSLRDDDTAVYYCAREIRRASTWSADLWGRGTLVTVSS
VL: DIQMTQSPSSLSASVGDRVIITCRASQSISSSLNWYQQKPGKAPKLLIYAAVNLETGVPSRFSGSGFGTDFTLAISNVQPEDFATYYCQQSDTRTFGRGTKLDVKR
Turning to B2, the IC50 (neutralization) was determined as 0.16 µg/mL in test [1]; 0.226 µg/mL in test [2]; 0.058 µg/mL in test [3]; 0.104 µg/mL in test [4]; 0.094 µg/mL in test [5]. Further, the IC80 (neutralization) in test [1] worked out at 0.247 µg/mL; in test [2], 0.564 µg/mL; in test [3] it was 0.18 µg/mL; in test [4], 0.364 µg/mL; in test [5], 0.174 µg/mL.
